Source: paper doi:10.1101/2023.05.01.538945

What was measured:
[1] = target: Bacillus phage Phi3T Gabija anti-defense 1 (Gad1) (Bacillus phage Phi3T); test: cryo-EM structure
[2] = target: SUMO2-tagged Bacillus cereus VD045 GajAB complex (Bacillus cereus VD045) (UniProt J8H9C1); test: cryo-EM structure
[3] = target: Bacillus cereus VD045 GajB (Gabija protein B), untagged, co-expressed with GajA (Bacillus cereus VD045) (UniProt J8HQ06); test: crystal structure

Chain of Bacillus phage Phi3T Gabija anti-defense 1 (Gad1) (natural protein) (A0A1P8CWZ3 whole entry): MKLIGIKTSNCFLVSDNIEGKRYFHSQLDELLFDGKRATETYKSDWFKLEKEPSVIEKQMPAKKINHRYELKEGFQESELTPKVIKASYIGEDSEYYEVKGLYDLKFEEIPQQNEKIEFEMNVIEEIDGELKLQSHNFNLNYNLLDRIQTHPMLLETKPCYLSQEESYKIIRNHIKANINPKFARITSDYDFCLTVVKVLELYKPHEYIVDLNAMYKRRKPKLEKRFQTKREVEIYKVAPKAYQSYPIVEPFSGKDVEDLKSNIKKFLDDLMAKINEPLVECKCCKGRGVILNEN
Chain of SUMO2-tagged Bacillus cereus VD045 GajAB complex (Bacillus cereus VD045) (J8H9C1 2-578, chain 1 of 2): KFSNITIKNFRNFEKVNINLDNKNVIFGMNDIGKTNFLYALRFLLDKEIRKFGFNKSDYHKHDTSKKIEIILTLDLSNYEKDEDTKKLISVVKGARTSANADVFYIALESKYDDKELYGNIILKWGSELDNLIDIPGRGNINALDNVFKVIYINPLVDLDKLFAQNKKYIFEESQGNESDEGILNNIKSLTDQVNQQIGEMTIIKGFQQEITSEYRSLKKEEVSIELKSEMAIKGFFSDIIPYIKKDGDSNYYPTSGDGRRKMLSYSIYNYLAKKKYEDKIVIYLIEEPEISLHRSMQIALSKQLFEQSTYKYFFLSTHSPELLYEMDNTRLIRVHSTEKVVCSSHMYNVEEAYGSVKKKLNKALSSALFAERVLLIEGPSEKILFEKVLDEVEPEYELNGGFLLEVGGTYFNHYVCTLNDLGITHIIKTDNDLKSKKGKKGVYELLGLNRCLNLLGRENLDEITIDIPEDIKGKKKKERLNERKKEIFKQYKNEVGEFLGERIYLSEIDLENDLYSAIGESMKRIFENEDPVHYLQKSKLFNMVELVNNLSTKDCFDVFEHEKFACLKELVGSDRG
Chain of SUMO2-tagged Bacillus cereus VD045 GajAB complex (Bacillus cereus VD045) (J8HQ06 2-494, chain 2 of 2, further chain): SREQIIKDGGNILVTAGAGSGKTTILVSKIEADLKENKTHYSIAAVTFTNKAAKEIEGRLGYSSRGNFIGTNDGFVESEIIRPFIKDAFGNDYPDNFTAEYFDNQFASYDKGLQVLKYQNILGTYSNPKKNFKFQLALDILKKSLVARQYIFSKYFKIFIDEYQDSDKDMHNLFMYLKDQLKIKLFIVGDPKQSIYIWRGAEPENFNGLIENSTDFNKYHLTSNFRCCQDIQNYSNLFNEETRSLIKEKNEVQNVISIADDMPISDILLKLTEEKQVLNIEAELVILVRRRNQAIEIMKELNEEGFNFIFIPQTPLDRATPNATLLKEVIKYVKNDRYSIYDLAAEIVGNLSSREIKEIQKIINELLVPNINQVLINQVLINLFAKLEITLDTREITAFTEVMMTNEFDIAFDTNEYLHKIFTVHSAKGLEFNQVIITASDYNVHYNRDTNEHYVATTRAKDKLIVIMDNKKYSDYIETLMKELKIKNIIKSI

**Q.** Which stoichiometry N [1] does the source give for “Bacillus phage Phi3T Gabija anti-defense 1 (Gad1) (natural protein)” here?
**A.** 8

**Q.** And the stoichiometry N (Gad1 per 4:4 GajAB assembly) [2]?
**A.** 8

**Q.** How did the stoichiometry N [3] turn out when “Bacillus cereus VD045 GajB (Gabija protein B), untagged, co-expressed with GajA (from UniProt J8HQ06 2-494) (enzyme)” was run?
**A.** 2
